# Data published in patent US20180016327A1 (Chugai, published 2018).
# Biological target: T1, human C5 (human, UniProt P01031 19-673; P01031 678-1676, Beta and alpha chains are disulfide-linked and the protein is glycosylated.)
# T1 construct: Either in-house recombinant C5 or plasma derived C5 (CALBIOCHEM) was used; also called recombinant human C5; plasma derived human C5
# Experiment: Biacore, captured antibody, pH 7.4, 37 C;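 also: biacore binding response of anti-C5 antibody light chain variants captured on chip with human C5 injected, ACES running buffer containing 1.2 mM CaCl₂, parent light chain antibody set to 100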
row,% binding (parent = 100) [%],Binder
1,25.7,"CFP0015 15L 30A (antibody, V domains shown) VH: QVQLLESGGGLVQPGGSLRLSCAASGFTFSSYAMSWVRQAPGKGLEWVSAISGSGGSTYYADSVKGRFTISRDNSKNTLYLQMNSLRAEDTAVYYCARGDQIWYDQWYYFDMWGQGTLVTVSS VL: DIQMTQSPSSLSASVGDRVTITCRASQSIADDLAWYQQKPGKAPKLLIYEASNLQSGVPSRFSGSGSGTDFTLTISSLQPEDFATYYCQQYDSSPLTFGQGTKVEIK"
2,30,"CFP0015 15L 31A (antibody, V domains shown) VH: QVQLLESGGGLVQPGGSLRLSCAASGFTFSSYAMSWVRQAPGKGLEWVSAISGSGGSTYYADSVKGRFTISRDNSKNTLYLQMNSLRAEDTAVYYCARGDQIWYDQWYYFDMWGQGTLVTVSS VL: DIQMTQSPSSLSASVGDRVTITCRASQSIEADLAWYQQKPGKAPKLLIYEASNLQSGVPSRFSGSGSGTDFTLTISSLQPEDFATYYCQQYDSSPLTFGQGTKVEIK"
3,59.9,"CFP0015 15L 30D (antibody, V domains shown) VH: QVQLLESGGGLVQPGGSLRLSCAASGFTFSSYAMSWVRQAPGKGLEWVSAISGSGGSTYYADSVKGRFTISRDNSKNTLYLQMNSLRAEDTAVYYCARGDQIWYDQWYYFDMWGQGTLVTVSS VL: DIQMTQSPSSLSASVGDRVTITCRASQSIDDDLAWYQQKPGKAPKLLIYEASNLQSGVPSRFSGSGSGTDFTLTISSLQPEDFATYYCQQYDSSPLTFGQGTKVEIK"
4,60.9,"CFP0015 15L 30P (antibody, V domains shown) VH: QVQLLESGGGLVQPGGSLRLSCAASGFTFSSYAMSWVRQAPGKGLEWVSAISGSGGSTYYADSVKGRFTISRDNSKNTLYLQMNSLRAEDTAVYYCARGDQIWYDQWYYFDMWGQGTLVTVSS VL: DIQMTQSPSSLSASVGDRVTITCRASQSIPDDLAWYQQKPGKAPKLLIYEASNLQSGVPSRFSGSGSGTDFTLTISSLQPEDFATYYCQQYDSSPLTFGQGTKVEIK"
5,21.4,"CFP0015 15L 30N (antibody, V domains shown) VH: QVQLLESGGGLVQPGGSLRLSCAASGFTFSSYAMSWVRQAPGKGLEWVSAISGSGGSTYYADSVKGRFTISRDNSKNTLYLQMNSLRAEDTAVYYCARGDQIWYDQWYYFDMWGQGTLVTVSS VL: DIQMTQSPSSLSASVGDRVTITCRASQSINDDLAWYQQKPGKAPKLLIYEASNLQSGVPSRFSGSGSGTDFTLTISSLQPEDFATYYCQQYDSSPLTFGQGTKVEIK"
6,25.8,"CFP0015 15L 31Q (antibody, V domains shown) VH: QVQLLESGGGLVQPGGSLRLSCAASGFTFSSYAMSWVRQAPGKGLEWVSAISGSGGSTYYADSVKGRFTISRDNSKNTLYLQMNSLRAEDTAVYYCARGDQIWYDQWYYFDMWGQGTLVTVSS VL: DIQMTQSPSSLSASVGDRVTITCRASQSIEQDLAWYQQKPGKAPKLLIYEASNLQSGVPSRFSGSGSGTDFTLTISSLQPEDFATYYCQQYDSSPLTFGQGTKVEIK"

# The next lines start with the binder.
row,Binder,% binding (parent = 100) [%]
1,"CFP0015 15L 30H (antibody, V domains shown) VH: QVQLLESGGGLVQPGGSLRLSCAASGFTFSSYAMSWVRQAPGKGLEWVSAISGSGGSTYYADSVKGRFTISRDNSKNTLYLQMNSLRAEDTAVYYCARGDQIWYDQWYYFDMWGQGTLVTVSS VL: DIQMTQSPSSLSASVGDRVTITCRASQSIHDDLAWYQQKPGKAPKLLIYEASNLQSGVPSRFSGSGSGTDFTLTISSLQPEDFATYYCQQYDSSPLTFGQGTKVEIK",18.4
2,"CFP0015 15L 30S (antibody, V domains shown) VH: QVQLLESGGGLVQPGGSLRLSCAASGFTFSSYAMSWVRQAPGKGLEWVSAISGSGGSTYYADSVKGRFTISRDNSKNTLYLQMNSLRAEDTAVYYCARGDQIWYDQWYYFDMWGQGTLVTVSS VL: DIQMTQSPSSLSASVGDRVTITCRASQSISDDLAWYQQKPGKAPKLLIYEASNLQSGVPSRFSGSGSGTDFTLTISSLQPEDFATYYCQQYDSSPLTFGQGTKVEIK",23.1
3,"CFP0015 15L 30F (antibody, V domains shown) VH: QVQLLESGGGLVQPGGSLRLSCAASGFTFSSYAMSWVRQAPGKGLEWVSAISGSGGSTYYADSVKGRFTISRDNSKNTLYLQMNSLRAEDTAVYYCARGDQIWYDQWYYFDMWGQGTLVTVSS VL: DIQMTQSPSSLSASVGDRVTITCRASQSIFDDLAWYQQKPGKAPKLLIYEASNLQSGVPSRFSGSGSGTDFTLTISSLQPEDFATYYCQQYDSSPLTFGQGTKVEIK",39.7
4,"CFP0015 15L 30T (antibody, V domains shown) VH: QVQLLESGGGLVQPGGSLRLSCAASGFTFSSYAMSWVRQAPGKGLEWVSAISGSGGSTYYADSVKGRFTISRDNSKNTLYLQMNSLRAEDTAVYYCARGDQIWYDQWYYFDMWGQGTLVTVSS VL: DIQMTQSPSSLSASVGDRVTITCRASQSITDDLAWYQQKPGKAPKLLIYEASNLQSGVPSRFSGSGSGTDFTLTISSLQPEDFATYYCQQYDSSPLTFGQGTKVEIK",25.1
5,"CFP0015 15L 31H (antibody, V domains shown) VH: QVQLLESGGGLVQPGGSLRLSCAASGFTFSSYAMSWVRQAPGKGLEWVSAISGSGGSTYYADSVKGRFTISRDNSKNTLYLQMNSLRAEDTAVYYCARGDQIWYDQWYYFDMWGQGTLVTVSS VL: DIQMTQSPSSLSASVGDRVTITCRASQSIEHDLAWYQQKPGKAPKLLIYEASNLQSGVPSRFSGSGSGTDFTLTISSLQPEDFATYYCQQYDSSPLTFGQGTKVEIK",59.4
6,"CFP0015 15L 31E (antibody, V domains shown) VH: QVQLLESGGGLVQPGGSLRLSCAASGFTFSSYAMSWVRQAPGKGLEWVSAISGSGGSTYYADSVKGRFTISRDNSKNTLYLQMNSLRAEDTAVYYCARGDQIWYDQWYYFDMWGQGTLVTVSS VL: DIQMTQSPSSLSASVGDRVTITCRASQSIEEDLAWYQQKPGKAPKLLIYEASNLQSGVPSRFSGSGSGTDFTLTISSLQPEDFATYYCQQYDSSPLTFGQGTKVEIK",22.4
7,"CFP0015 15L 30Y (antibody, V domains shown) VH: QVQLLESGGGLVQPGGSLRLSCAASGFTFSSYAMSWVRQAPGKGLEWVSAISGSGGSTYYADSVKGRFTISRDNSKNTLYLQMNSLRAEDTAVYYCARGDQIWYDQWYYFDMWGQGTLVTVSS VL: DIQMTQSPSSLSASVGDRVTITCRASQSIYDDLAWYQQKPGKAPKLLIYEASNLQSGVPSRFSGSGSGTDFTLTISSLQPEDFATYYCQQYDSSPLTFGQGTKVEIK",51.3
8,"CFP0015 15L 31N (antibody, V domains shown) VH: QVQLLESGGGLVQPGGSLRLSCAASGFTFSSYAMSWVRQAPGKGLEWVSAISGSGGSTYYADSVKGRFTISRDNSKNTLYLQMNSLRAEDTAVYYCARGDQIWYDQWYYFDMWGQGTLVTVSS VL: DIQMTQSPSSLSASVGDRVTITCRASQSIENDLAWYQQKPGKAPKLLIYEASNLQSGVPSRFSGSGSGTDFTLTISSLQPEDFATYYCQQYDSSPLTFGQGTKVEIK",42.2
9,"CFP0015 15L 30Q (antibody, V domains shown) VH: QVQLLESGGGLVQPGGSLRLSCAASGFTFSSYAMSWVRQAPGKGLEWVSAISGSGGSTYYADSVKGRFTISRDNSKNTLYLQMNSLRAEDTAVYYCARGDQIWYDQWYYFDMWGQGTLVTVSS VL: DIQMTQSPSSLSASVGDRVTITCRASQSIQDDLAWYQQKPGKAPKLLIYEASNLQSGVPSRFSGSGSGTDFTLTISSLQPEDFATYYCQQYDSSPLTFGQGTKVEIK",42.6
